One assay has as its target T1, DLL3 (Homo sapiens, UniProt Q9NYJ7).
T1 sequence (Q9NYJ7 27-618): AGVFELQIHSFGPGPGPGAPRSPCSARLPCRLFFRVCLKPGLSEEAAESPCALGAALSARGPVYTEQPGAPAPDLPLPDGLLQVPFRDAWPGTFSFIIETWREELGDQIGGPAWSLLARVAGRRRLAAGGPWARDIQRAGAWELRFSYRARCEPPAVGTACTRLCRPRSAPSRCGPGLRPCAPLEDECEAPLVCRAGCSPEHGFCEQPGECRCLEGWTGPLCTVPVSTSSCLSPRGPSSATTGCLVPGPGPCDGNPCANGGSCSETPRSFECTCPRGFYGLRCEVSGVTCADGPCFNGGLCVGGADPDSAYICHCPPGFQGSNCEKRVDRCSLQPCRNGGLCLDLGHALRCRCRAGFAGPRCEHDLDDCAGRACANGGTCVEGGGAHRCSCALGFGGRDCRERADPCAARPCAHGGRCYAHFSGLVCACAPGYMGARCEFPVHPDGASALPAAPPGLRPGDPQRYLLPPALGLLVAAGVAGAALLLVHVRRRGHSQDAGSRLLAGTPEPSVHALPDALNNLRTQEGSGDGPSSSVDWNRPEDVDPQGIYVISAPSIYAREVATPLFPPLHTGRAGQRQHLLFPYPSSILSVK
As to the kind of experiment: SPR binding affinity of cyclic peptides (SEQ ID NOs), SA sensor chip, Biacore S200. The note with it: 25° C., 1:1 binding model. The method, then: The binding affinity and binding kinetic parameters at 25° C. were determined using Biacore S200 instrument. Target ligand was immobilized on a SA sensor chip via streptavidin capture. A reference surface was set up for nonspecific binding and refractive index changes. For analysis of the kinetics of interactions, varying concentrations of peptides were injected at a flow rate of 50 μL/minute using running buffer containing 20 mM phosphate buffer with 2.7 mM KCl, 137 mM NaCl and 0.05% Surfactant P20. Sensorgram curves were fitted with 1:1 binding model, and affinity and kinetic parameters were obtained using either Biacore S200 evaluation software 1.1.1 or Biacore Insight evaluation 4.0.

Assay [1] addresses T2, DLL3 on SHP-77 cells (human, UniProt Q9NYJ7 27-618).
T2 construct: SHP-77 cells are human-derived, non-engineered SCLC cells
T2 sequence: T1 sequence (Q9NYJ7 27-618)
Nature of the assay: [177Lu]Lu-labelled peptide on SHP-77 cells, 1 h 37 C, gamma counter; B = 25<%<=50.

For assay [2], the target named is DLL3 on CT26.DLL3 cells (Homo sapiens (Human)) (UniProt Q9NYJ7). Nature of the assay: [177Lu]Lu-labelled peptide on CT26.DLL3 cells, 1 h 37 C, gamma counter; A = %<=25.
For assay [3], the target named is T3, Biotinylated target ligand human DLL3 (human, UniProt Q9NYJ7 27-492, limits assumed, biotinylated (site not stated)).
T3 sequence: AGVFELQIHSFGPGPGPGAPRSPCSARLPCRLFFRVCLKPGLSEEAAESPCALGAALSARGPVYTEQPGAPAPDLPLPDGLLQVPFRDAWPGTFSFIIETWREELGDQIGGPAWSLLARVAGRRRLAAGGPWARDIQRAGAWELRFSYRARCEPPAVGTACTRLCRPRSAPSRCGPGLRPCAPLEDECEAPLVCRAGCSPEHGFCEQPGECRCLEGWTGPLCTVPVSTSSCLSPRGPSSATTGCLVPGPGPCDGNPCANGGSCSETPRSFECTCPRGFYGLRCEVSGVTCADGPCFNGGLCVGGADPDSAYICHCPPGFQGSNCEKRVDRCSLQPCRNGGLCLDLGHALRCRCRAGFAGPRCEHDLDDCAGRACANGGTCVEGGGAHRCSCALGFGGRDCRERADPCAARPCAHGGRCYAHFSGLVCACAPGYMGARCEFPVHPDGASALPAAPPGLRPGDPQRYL
As to the kind of experiment: SPR, biotinylated human DLL3 on streptavidin chip; A = KD<=1.0 nM. The method, then:
(§1) Biotinylated target ligand human DLL3 was immobilized on a streptavidin sensor chip. A reference surface was set up for nonspecific binding and refractive index changes. For analysis of the kinetics of interactions, varying concentrations of samples were injected at a flow rate of 100 μL/minute using running buffer containing 20 mM phosphate buffer with 2.7 mM KCl, 137 mM NaCl, 0.05% Surfactant P20 and 2% DMSO. Sensorgram curves were fitted with 1:1 binding model, and affinity and kinetic parameters were obtained using Biacore Insight evaluation 4.0. software.
On the technique in general: SPR reads the build-up and loss of mass on a sensor chip optically.

Assay [4] has as its target T3, Biotinylated target ligand human DLL3. As to the kind of experiment: SPR, biotinylated human DLL3 on streptavidin chip; B = 1.0 nM<KD<=10 nM; lower limit of grade B. The method, then:
as §1

Assay [5] shares this target. Nature of the assay: SPR, biotinylated human DLL3 on streptavidin chip; B = 1.0 nM<KD<=10 nM; upper limit of grade B. As to the method: as §1
Assay [6] concerns the target Recombinant human DLL3 aa27-215 protein (human) (UniProt Q9NYJ7). As to the kind of experiment: ELISA: anti-DOTA antibody coated on the plate captures the DOTA-containing peptide (titrated 100 nM to 1.69 pM); 2 ug/mL DLL3 aa27-215 (His-tagged) added; detected with anti-His-HRP, OD450; EC50 fitted in GraphPad.
The target in assay [7] is DLL3 on CT26.DLL3 cells (Homo sapiens (Human)) (UniProt Q9NYJ7). As to the kind of experiment: [177Lu]Lu-labelled peptide on CT26.DLL3 cells, 1 h 37 C, gamma counter; B = 25<%<=50.
The target in assay [8] is T2, DLL3 on SHP-77 cells. Nature of the assay: [177Lu]Lu-labelled peptide on SHP-77 cells, 1 h 37 C, gamma counter; C = %>50.

Drawing on US20250049970A1, “DLL3 TARGETING PEPTIDES AND CONSTRUCTS THEREOF” (MARIANA ONCOLOGY INC., priority 2023, published 2025), this text covers Kd, % Binding and EC50 for ten molecules.

For orientation: Kd means the concentration at which binding is half-saturated. Higher therefore signals lower affinity. Broadly, the EC50 is the concentration needed to bring the measured effect to its halfway point.

Several values for one entry are separate records, joined by “and”; a condition that tells them apart may be missing. Equal entries are not always repeated. *1 amine or outer side, *2 acyl side, *3 side chain or, on linkers, in order; H or OH if unused. Where a SMILES comes first, the peptide text is derived from it. Bridges are numbered along the chain shown (N, C = ends). [ ]: non-standard residue; d: D form. The star is where a group is joined. Ala(piperidin-4-yl) = O=C([C@H](CC1CCN([*:3])CC1)N[*:1])[*:2]; DOTA = O=C(O)CN1CCN(CC(=O)O)CCN(CC(=O)*)CCN(CC(=O)O)CC1; 2Nal = N[C@@H](Cc1ccc2ccccc2c1)C(=O)O; NMetBuAla = CN[C@@H](CC(C)(C)C)C(=O)O; Ile(3-Me) = CCC(C)(C)[C@H](N)C(=O)O; aIle = CC[C@@H](C)[C@H](N)C(=O)O; tBuAla = CC(C)(C)C[C@H](N)C(=O)O; Chg = N[C@H](C(=O)O)C1CCCCC1; αMeP = C[C@@]1(C(=O)O)CCCN1 A value given as a limit tells only on which side of the number the result lay.

For the molecule `CC[C@H](C)[C@H](NC(=O)[C@@H](NC(=O)[C@H](Cc1c[nH]c2ccccc12)NC(=O)[C@H](CCSC)NC(C)=O)[C@@H](C)O)C(=O)N[C@H]1CSSC[C@@H](C(=O)N[C@@H](Cc2c[nH]c3ccccc23)C(=O)N[C@H](C)C(N)=O)NC(=O)[C@H](CC(=O)O)NC(=O)[C@H](Cc2cnc[nH]2)NC(=O)[C@H](Cc2c[nH]c3ccccc23)NC(=O)[C@H](CC(N)=O)NC(=O)[C@H](CC(N)=O)NC1=O` [compound 85] (Ac-MWTICNNWHDCW[dA]-NH2; disulfide 5-11), at DLL3, the Kd worked out at 150 nM. For `CC[C@H](C)[C@H](NC(=O)[C@@H](NC(=O)[C@H](Cc1c[nH]c2ccccc12)NC(=O)[C@H](CCSC)NC(C)=O)[C@@H](C)O)C(=O)N[C@H]1CSSC[C@@H](C(=O)N[C@@H](Cc2c[nH]c3ccccc23)C(=O)N2CCC[C@H]2C(N)=O)NC(=O)[C@H](CC(=O)O)NC(=O)[C@H](Cc2cnc[nH]2)NC(=O)[C@H](Cc2c[nH]c3ccccc23)NC(=O)[C@H](CC(N)=O)NC(=O)[C@@H](C)NC1=O` [compound 82] (Ac-MWTIC[dA]NWHDCWP-NH2; disulfide 5-11), the equilibrium dissociation constant (Kd) on DLL3 was 47 nM.

`CSCC[C@H](NC(C)=O)C(=O)N[C@@H](Cc1c[nH]c2ccccc12)C(=O)N[C@@H](CCSC)C(=O)N[C@@H](CC(C)C)C(=O)N[C@H]1CSSC[C@@H](C(=O)N[C@@H](Cc2c[nH]c3ccccc23)C(=O)N2CCC[C@H]2C(N)=O)NC(=O)[C@H](CC(=O)O)NC(=O)[C@H](CCCCN)NC(=O)[C@H](CC(=O)O)NC(=O)[C@H](Cc2c[nH]c3ccccc23)NC(=O)[C@H](CC(=O)O)NC1=O` [compound 77] (Ac-MWMLCDWDKDCWP-NH2; disulfide 5-11): at DLL3, the affinity, expressed as Kd, was 150 nM. As for Ac-WT[Ile(3-Me)]C[Ala(piperidin-4-yl)]N[2Nal]K(DOTA)DCWP-NH2 (disulfide 4-10) [Cpd No. 302], the % Binding is > 25% and < 50% with DLL3 on SHP-77 cells [1]; below 25% in [2]. Regarding Ac-WT[aIle]C[Ala(piperidin-4-yl)]N[2Nal]K(DOTA)DCWP-NH2 (disulfide 4-10) [Cpd No. 303], the % Binding is > 25% and < 50% with DLL3 on SHP-77 cells [1]; below 25% in assay [2]. In [3], this molecule registered a Kd below 1 nM. For the molecule Ac-MWTICNNWHDCWP-NH2 (disulfide 5-11) [Cpd No. 1], the Kd in assay [4] was above 1 nM; in assay [5] it was at most 10 nM. Regarding Ac-WT[tBuAla]C[Ala(piperidin-4-yl)]N[2Nal]K(DOTA)DCW[αMeP]-NH2 (bridge 4-10; not fully specified (bridges)) [Cpd No. 437], the EC50 in assay [6] was determined as 2.86 nM. In the case of Ac-WT[tBuAla]C[Ala(piperidin-4-yl)]N[2Nal]K(DOTA)DCWP-NH2 (bridge 4-10; not fully specified (bridges)) [Cpd No. 94], the % Binding in [7] is > 25% and < 50%. For the same molecule, the EC50 in [6] was found to be 2.19 nM. Turning to Ac-WT[NMetBuAla]C[Ala(piperidin-4-yl)]N[2Nal]K(DOTA)DCW[αMeP]-NH2 (bridge 4-10; not fully specified (bridges)) [Cpd No. 236], the % Binding in the assay with DLL3 on SHP-77 cells [8] was above 50%. In addition, the EC50 in assay [6] is 0.341 nM. In the case of Ac-WT[Chg]C[Ala(piperidin-4-yl)]N[2Nal]K(DOTA)DCWP-NH2 (disulfide 4-10) [Cpd No. 324], the % Binding was > 25% and < 50% with DLL3 on SHP-77 cells [1]; below 25% in assay [2].
